# Source: US20160290999A1 (SYSMEX, published 2016)
# No end group written: not given here.
# B1: TMR-labeled SA21 (peptide)
# peptide: DDEWLCGWRPLCIDEILR
# modifications: cysteine pairing not given here; also: TMR label, site not given here
# notes: The free text was followed; also called TMR-SA21; TMR-labeled SA1
# B2: TMR-labeled ACTH (1-39) (peptide)
# peptide: SYSMEHFRWGKPVGKKRRPVKVYPNAGENESAEAFPLEF
# modifications: also: TMR label, site not given here
# notes: The free text was followed; also called Adrenocorticotropic hormone (ACTH) (1-39)
# Columns and labels:
# Human serum albumin [1] = target: T1, Human serum albumin (human, UniProt P02768 25-609); assay: fluorescence titration of TMR-labelled peptide against HSA, Hill fit (Example 2, FIG. 6)
# T1 construct: Purchased protein used in solution; In the hydrothermal experiments it is heat-aggregated into an insoluble precipitate; also called HSA
# Protocol: (§1) Each of the resulting mixtures was subjected to measurement with a spectrophotofluorometer [product name: F-7000, manufactured by Hitachi High-Technologies Corporation] and the fluorescence intensity with an excitation wavelength of 540 nm and a fluorescence wavelength of 580 nm (hereinafter, referred to as “fluorescence intensity A”) was measured.
# Human serum albumin [2] = target: T1, Human serum albumin; assay: fluorescence titration of TMR-labelled peptide against HSA, Hill fit (as in Example 1)
# Protocol: as §1
# Human serum albumin [3] = target: T1, Human serum albumin; assay: Kd as classified from the fluorescence titration; told in Example 4 of the peptides of samples F and G
binder,measurement,setting,value
B1,Kd,Human serum albumin [1],< 500 µM
B2,Kd,Human serum albumin [2],520 µM
"LVAASQAALGL (also: TMR label, site not given here) [TMR-labeled HSA 599-609 fragment]",Kd,Human serum albumin [3],≥ 500 µM
